In US20240392037A1 (UNIVERSITY OF PITTSBURGH OF THE COMMONWEALTH SYSTEM OF …, published 2024):

Experiments:
[1] = target: T1, recombinant human myeloperoxidase protein (human, UniProt P05164 49-745, limits assumed); assay: ELISA, rhMPO coated at 50 ng/well, anti-FLAG-HRP detection
T1 construct: Specificity control, coated at 50 ng/well in ELISA; also called rhMPO
T1 sequence (looked up): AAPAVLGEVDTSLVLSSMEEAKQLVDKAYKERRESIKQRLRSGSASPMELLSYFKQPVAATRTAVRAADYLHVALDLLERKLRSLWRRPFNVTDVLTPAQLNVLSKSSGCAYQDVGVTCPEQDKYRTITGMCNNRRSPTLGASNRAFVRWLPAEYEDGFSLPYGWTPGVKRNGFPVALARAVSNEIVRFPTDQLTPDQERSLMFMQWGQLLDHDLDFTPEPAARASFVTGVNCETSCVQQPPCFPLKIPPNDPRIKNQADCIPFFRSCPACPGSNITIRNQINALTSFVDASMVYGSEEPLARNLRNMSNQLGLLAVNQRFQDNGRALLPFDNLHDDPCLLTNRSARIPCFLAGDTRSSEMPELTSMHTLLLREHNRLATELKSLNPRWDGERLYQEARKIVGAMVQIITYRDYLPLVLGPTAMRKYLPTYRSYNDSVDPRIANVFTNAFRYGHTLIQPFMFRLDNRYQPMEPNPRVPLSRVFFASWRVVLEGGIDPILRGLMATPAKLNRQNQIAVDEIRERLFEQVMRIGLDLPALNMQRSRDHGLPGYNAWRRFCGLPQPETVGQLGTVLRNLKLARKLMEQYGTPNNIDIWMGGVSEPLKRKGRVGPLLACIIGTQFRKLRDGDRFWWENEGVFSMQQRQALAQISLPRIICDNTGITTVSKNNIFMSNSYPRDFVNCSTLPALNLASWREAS
Description: (§1) FIG. 12. Specificity of VH/VH-Fc and Fab/IgG1 with recombinant human NE. (A and B) Binding of Fab 1C10 (A) and VH 1D1.43 (B) to rhNE, rhMPO, and PR3 measured by ELISA. (C and D) Binding of IgG1 1C10 (C) and VH-Fc 1D1.43 (D) to rhNE, rhMPO, BSA, and PR3 measured by ELISA. rhNE, rhMPO, BSA, and PR3 were coated in 96-well microplates at 50 ng/well. Experiments were performed in duplicate. Values were reported as the mean±SD.
(§2) The NE polypeptide was coated in 96-well microplates at 50 ng/well in PBS at 4° C. over-night and blocked with 5% milk in PBS for 2 hours at room temperature. For the soluble Fab/VH binding assay, the 3-fold serially diluted Fab/VH were added and incubated for 1 hour at 37° C. and further incubated with anti-FLAG M2-peroxidase (HRP) antibody (A8592, Sigma-Aldrich) for another 1 hour. For the IgG₁ binding assay, HRP conjugated goat anti-human IgG₁ Fc (Sigma-Aldrich) was used for detection. Finally, the reaction was developed by 3,3′,5,5′-tetramethylbenzidine (TMB, Sigma-Aldrich) and stopped by TMB stop buffer (ScyTek laboratories). Absorbance was recorded at 450 nm. The experiment was performed in duplicate.

[2] = target: T2, human neutrophil elastase (NE) polypeptide (human, UniProt P08246 28-267, limits assumed); assay: ELISA, NE coated at 50 ng/well, anti-FLAG-HRP detection
T2 construct: also called hNE; rhNE
T2 sequence: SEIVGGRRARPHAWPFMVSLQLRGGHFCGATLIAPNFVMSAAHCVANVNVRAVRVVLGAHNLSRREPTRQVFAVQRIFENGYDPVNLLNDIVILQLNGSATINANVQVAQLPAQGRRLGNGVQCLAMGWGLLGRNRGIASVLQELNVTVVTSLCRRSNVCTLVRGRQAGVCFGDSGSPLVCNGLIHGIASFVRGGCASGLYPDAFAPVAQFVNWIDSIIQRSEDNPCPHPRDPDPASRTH
Description: as §1, §2

[3] = target: T2, human neutrophil elastase (NE) …; assay: cell-based or functional assay
Proteinase 3 [4] = target: T3, Proteinase 3 (UniProt P24158 28-248, limits assumed); assay: ELISA, PR3 coated at 50 ng/well, anti-FLAG-HRP detection
T3 construct: Specificity control, coated at 50 ng/well in ELISA; also called PR3
T3 sequence (looked up): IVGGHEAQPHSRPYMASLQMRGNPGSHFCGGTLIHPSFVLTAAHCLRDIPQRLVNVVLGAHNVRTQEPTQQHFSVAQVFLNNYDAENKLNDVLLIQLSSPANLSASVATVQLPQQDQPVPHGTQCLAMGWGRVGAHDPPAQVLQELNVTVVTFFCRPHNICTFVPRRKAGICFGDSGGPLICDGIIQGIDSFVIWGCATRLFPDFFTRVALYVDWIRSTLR
Description: as §1, §2

[5] = target: T2, human neutrophil elastase (NE) …; assay: ELISA, NE coated at 50 ng/well, anti-FLAG-HRP detection; remark: listed apart in the source
Description: as §2

[6] = target: T2, human neutrophil elastase (NE) …; assay: BLItz biolayer interferometry, NE-Biotin on streptavidin biosensor
Description: The affinity and avidity of anti-hNE binders were detected by biolayer interferometry BLItz (ForteBio, Menlo Park, CA). Briefly, Dulbecco's PBS (DPBS) was used to establish baseline for 30 seconds, and streptavidin biosensor (ForteBio) was coated with 16.7 μg/mL recombinant NE-Biotin for 2 minutes. […] Antigen coated biosensors with PBS served as reference controls. The dissociation was monitored in DPBS for 4 minutes.

[7] = target: T2, human neutrophil elastase (NE) …; assay: ELISA, NE coated at 50 ng/well, anti-human IgG1 Fc-HRP detection
Description: as §2

[8] = target: T1, recombinant human myeloperoxidase …; assay: ELISA, rhMPO coated at 50 ng/well, HRP anti-human IgG1 Fc detection
Proteinase 3 [9] = target: T3, Proteinase 3; assay: ELISA, PR3 coated at 50 ng/well, HRP anti-human IgG1 Fc detection
BSA [10] = target: T4, BSA (UniProt P02769 25-607); assay: ELISA, BSA coated at 50 ng/well, HRP anti-human IgG1 Fc detection
T4 sequence (P02769 25-607 limits assumed): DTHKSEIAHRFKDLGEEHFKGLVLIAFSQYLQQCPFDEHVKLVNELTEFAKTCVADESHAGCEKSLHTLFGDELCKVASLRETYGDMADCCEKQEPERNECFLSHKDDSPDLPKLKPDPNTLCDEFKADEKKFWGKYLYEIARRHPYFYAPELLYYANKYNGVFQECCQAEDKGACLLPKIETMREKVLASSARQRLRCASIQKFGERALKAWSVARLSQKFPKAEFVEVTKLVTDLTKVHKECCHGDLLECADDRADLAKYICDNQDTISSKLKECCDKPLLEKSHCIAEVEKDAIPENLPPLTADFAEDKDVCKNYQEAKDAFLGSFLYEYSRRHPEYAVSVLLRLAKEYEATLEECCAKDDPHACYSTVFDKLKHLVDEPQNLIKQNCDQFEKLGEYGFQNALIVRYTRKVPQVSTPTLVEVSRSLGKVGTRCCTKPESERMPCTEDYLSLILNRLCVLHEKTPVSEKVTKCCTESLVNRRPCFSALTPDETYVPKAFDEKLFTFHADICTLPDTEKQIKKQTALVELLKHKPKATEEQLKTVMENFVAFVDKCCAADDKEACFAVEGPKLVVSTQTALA
Description: as §1, §2

[11] = target: T2, human neutrophil elastase (NE) …; assay: ELISA, NE coated at 50 ng/well
Description: as §1, §2

BSA [12] = target: T4, BSA; assay: ELISA, BSA coated at 50 ng/well
Description: as §1, §2

Proteinase 3 [13] = target: T3, Proteinase 3; assay: ELISA, PR3 coated at 50 ng/well
Description: as §1, §2

[14] = target: T1, recombinant human myeloperoxidase …; assay: ELISA, rhMPO coated at 50 ng/well
Description: as §1, §2

Proteinase 3 [15] = target: T3, Proteinase 3; assay: ELISA, PR3 coated at 50 ng/well, anti-FLAG-HRP detection; remark: listed apart in the source
[16] = target: T1, recombinant human myeloperoxidase …; assay: ELISA, rhMPO coated at 50 ng/well, anti-FLAG-HRP detection; remark: listed apart in the source

B1: Fab 1C10 (Fab, V domains shown)
VH: QVQLVESGGGLVKPGGSLRLSCAASGFTFSDYYMSWIRQAPGKGLEWVSYISSSGSTIYYADSVKGRFTISRDNAKNSLYLQMNSLRAEDTAVYYCARVGGDFWSGFLMDVWGQGTTVTVSS
VL: DIQMTQSPSSLSASVGDRVTITCRASQSISSYLNWYQQKPGKAPKLLIYAASSLQSGVPSRFSGSGSGTDFTLTISSLQPEDVAVYYCMQALQTPLTFGQGTKLEIKR
notes: Human Fab from a phage library; also called Clone #1; #1 (Fab)
[1]
  binding result: no binding (tested: about 7,000 nM)
[2]
  EC50 (read off the curve): ~3 nM
[3]
  IC50 of inhibition of neutrophil elastase enzyme activity: ~5000 nM
Proteinase 3 [4]
  binding result: no binding (tested: about 7,000 nM)
[5]
  EC50: 16.3 nM
[6]
  Kd: 8.5 nM

B2: IgG1 1C10 (antibody, V domains shown)
VH: B1 VH
VL: B1 VL
notes: Fab 1C10 converted to a bivalent human IgG1 (heavy and light chains re-cloned into the pcDNA-IgG1 vector, expressed in Expi293 cells); also called IgG 1C10; 1C10 IgG1
[7]
  EC50: 0.4 nM
[3]
  IC50 of inhibition of neutrophil elastase enzyme activity: 1800 nM
[8]
  binding result: no binding (tested: about 200 nM)
Proteinase 3 [9]
  binding result: no binding (tested: about 200 nM)
BSA [10]
  binding result: no binding (tested: about 200 nM)
[6]
  Kd: 0.14 nM

B3: VH-Fc 1D1.43 (Fc fusion)
chain: EVQLVESGGGVVQPGRSLRLSCAASGFTFSNYAMHWVRQAPGKGLEWVAVISYDGSNKYYADSVKGRFTISRDDSTNTLYLQMNNLRAEDTAVYYCAKDLPWEWELDYWGQGTLVTVSS
notes: VH 1D1.43 converted to a bivalent antibody by fusion to human IgG1 Fc; also called VH-Fc ID1.43; not shown: human IgG1 Fc
[11]
  EC50 (read off the curve): ~0.7 nM
[7]
  EC50: 0.66 nM
BSA [12]
  binding result: no binding (tested: about 1,000 nM)
[3]
  IC50 of inhibition of neutrophil elastase enzyme activity; fold change against the VH form (VH 1D1.43): 10 fold
Proteinase 3 [13]
  binding result: no binding (tested: about 1,000 nM)
[14]
  binding result: no binding (tested: about 1,000 nM)

B4: VH 1D1.43 (other)
VH: B3 chain
notes: Expressed in E. coli, purified on Ni-NTA and detected with anti-FLAG antibody; also called Clone #2; #2 (VH)
[2]
  EC50 (read off the curve): ~10 nM
Proteinase 3 [15]
  binding result: no binding (tested: about 30,000 nM)
[5]
  EC50: 4.3 nM
[16]
  binding result: no binding (tested: about 30,000 nM)
